According to FireProtDB (doi:10.1016/0003-9861(92)90047-z):

B1: Tryptophan synthase alpha chain, P0A877 (parent)
chain: MERYESLFAQLKERKEGAFVPFVTLGDPGIEQSLKIIDTLIEAGADALELGIPFSDPLADGPTIQNATLRAFAAGVTPAQCFEMLALIRQKHPTIPIGLLMYANLVFNKGIDEFYAQCEKVGVDSVLVADVPVEESAPFRQAALRHNVAPIFICPPNADDDLLRQIASYGRGYTYLLSRAGVTGAENRAALPLNHLVAKLKEYNAAPPLQGFGISAPDQVKAAIDAGAAGAISGSAIVKIIEQHINEPEKMLAALKVFVQPMKAATRS

Variants of: B1
Conditions: Escherichia coli (strain K12); pH 7.2; Thermal; DSC; Sodium phosphate 1 mM; reversible: yes; structure 1WQ5; whole UniProt chain shown

Row | Variant | Tm [°C] | change of melting temperature, mutant - wild type (higher = more stable) [°C]
1 | MERYESLFAQLKERKEGAFVPFVTLGDPGIEQSLKIIDTLIEAGADALELGIPFSDPLADGQTIQNATLRAFAAGVTPAQCFEMLALIRQKHPTIPIGLLMYANLVFNKGIDEFYAQCEKVGVDSVLVADVPVEESAPFRQAALRHNVAPIFICPPNADDDLLRQIASYGRGYTYLLSRAGVTGAENRAALPLNHLVAKLKEYNAAPPLQGFGISAPDQVKAAIDAGAAGAISGSAIVKIIEQHINEPEKMLAALKVFVQPMKAATRS [P62Q] | 58.9 | -0.6
2 | MERYESLFAQLKERKEGAFVPFVTLGDPGIEQSLKIIDTLIEAGADALELGIPFSGPLADGPTIQNATLRAFAAGVTPAQCFEMLALIRQKHPTIPIGLLMYANLVFNKGIDEFYAQCEKVGVDSVLVADVPVEESAPFRQAALRHNVAPIFICPPNADDDLLRQIASYGRGYTYLLSRAGVTGAENRAALPLNHLVAKLKEYNAAPPLQGFGISAPDQVKAAIDAGAAGAISGSAIVKIIEQHINEPEKMLAALKVFVQPMKAATRS [D56G] | 57.5 | -2
3 | MERYESLFAQLKERKEGAFVPFVTLGDPGIEQSLKIIDTLIEAGADALELGIPFSDPLADGPTIQNATLRAFAAGVTPAQCFEMLALIRQKHPTIPIGLLMCANLVFNKGIDEFYAQCEKVGVDSVLVADVPVEESAPFRQAALRHNVAPIFICPPNADDDLLRQIASYGRGYTYLLSRAGVTGAENRAALPLNHLVAKLKEYNAAPPLQGFGISAPDQVKAAIDAGAAGAISGSAIVKIIEQHINEPEKMLAALKVFVQPMKAATRS [Y102C] | 60.9 | 1.4
4 | MERYESLFAQLKERKEGAFVPFVTLGDPGIEQSLKIIDTLIEAGADALELGIPFSDPLADGPTIQNVTLRAFAAGVTPAQCFEMLALIRQKHPTIPIGLLMYANLVFNKGIDEFYAQCEKVGVDSVLVADVPVEESAPFRQAALRHNVAPIFICPPNADDDLLRQIASYGRGYTYLLSRAGVTGAENRAALPLNHLVAKLKEYNAAPPLQGFGISAPDQVKAAIDAGAAGAISGSAIVKIIEQHINEPEKMLAALKVFVQPMKAATRS [A67V] | 56.8 | -2.7
5 | MERYESLFAQLKERKEGAFVPFVTLGDPGIEQSLKIIDTLIEAGADALELGIPFSDPLADGPTIQNATLRAFAAGVTSAQCFEMLALIRQKHPTIPIGLLMYANLVFNKGIDEFYAQCEKVGVDSVLVADVPVEESAPFRQAALRHNVAPIFICPPNADDDLLRQIASYGRGYTYLLSRAGVTGAENRAALPLNHLVAKLKEYNAAPPLQGFGISAPDQVKAAIDAGAAGAISGSAIVKIIEQHINEPEKMLAALKVFVQPMKAATRS [P78S] | 57.9 | -1.6
6 | MERYESLFAQLKERKEGAFVPFVTLGDPGIEQSLKIIDTLIEAGADALELGIPFSDPLADGPTIQNATLRAFAAGVTLAQCFEMLALIRQKHPTIPIGLLMYANLVFNKGIDEFYAQCEKVGVDSVLVADVPVEESAPFRQAALRHNVAPIFICPPNADDDLLRQIASYGRGYTYLLSRAGVTGAENRAALPLNHLVAKLKEYNAAPPLQGFGISAPDQVKAAIDAGAAGAISGSAIVKIIEQHINEPEKMLAALKVFVQPMKAATRS [P78L] | 61.4 | 1.9
7 | MERYESLFAQLKERKEGAFVPFVMLGDPGIEQSLKIIDTLIEAGADALELGIPFSDPLADGPTIQNATLRAFAAGVTPAQCFEMLALIRQKHPTIPIGLLMYANLVFNKGIDEFYAQCEKVGVDSVLVADVPVEESAPFRQAALRHNVAPIFICPPNADDDLLRQIASYGRGYTYLLSRAGVTGAENRAALPLNHLVAKLKEYNAAPPLQGFGISAPDQVKAAIDAGAAGAISGSAIVKIIEQHINEPEKMLAALKVFVQPMKAATRS [T24M] | 61.8 | 2.3
8 | MERYESLFAQLKERKEGAFVPFVTLGDLGIEQSLKIIDTLIEAGADALELGIPFSDPLADGPTIQNATLRAFAAGVTPAQCFEMLALIRQKHPTIPIGLLMYANLVFNKGIDEFYAQCEKVGVDSVLVADVPVEESAPFRQAALRHNVAPIFICPPNADDDLLRQIASYGRGYTYLLSRAGVTGAENRAALPLNHLVAKLKEYNAAPPLQGFGISAPDQVKAAIDAGAAGAISGSAIVKIIEQHINEPEKMLAALKVFVQPMKAATRS [P28L] | 54.9 | -4.6
9 | MERYESLFAQLKERKEGAFVPFVTLGDPGIEQSLKIIDTLIEAGADALELGIPFSDPLADGPKIQNATLRAFAAGVTPAQCFEMLALIRQKHPTIPIGLLMYANLVFNKGIDEFYAQCEKVGVDSVLVADVPVEESAPFRQAALRHNVAPIFICPPNADDDLLRQIASYGRGYTYLLSRAGVTGAENRAALPLNHLVAKLKEYNAAPPLQGFGISAPDQVKAAIDAGAAGAISGSAIVKIIEQHINEPEKMLAALKVFVQPMKAATRS [T63K] | 56.2 | -3.3
10 | MERYESLFAQLKERKEGAFVPFVTLGDPGIEQSLKIIDTLIEAGADALELGIHFSDPLADGPTIQNATLRAFAAGVTPAQCFEMLALIRQKHPTIPIGLLMYANLVFNKGIDEFYAQCEKVGVDSVLVADVPVEESAPFRQAALRHNVAPIFICPPNADDDLLRQIASYGRGYTYLLSRAGVTGAENRAALPLNHLVAKLKEYNAAPPLQGFGISAPDQVKAAIDAGAAGAISGSAIVKIIEQHINEPEKMLAALKVFVQPMKAATRS [P53H] | 56.2 | -3.3
11 | MERYESLFAQLKERKEGAFVPFVTLGDPGIEQSLKIIDTLIEAGADALELGITFSDPLADGPTIQNATLRAFAAGVTPAQCFEMLALIRQKHPTIPIGLLMYANLVFNKGIDEFYAQCEKVGVDSVLVADVPVEESAPFRQAALRHNVAPIFICPPNADDDLLRQIASYGRGYTYLLSRAGVTGAENRAALPLNHLVAKLKEYNAAPPLQGFGISAPDQVKAAIDAGAAGAISGSAIVKIIEQHINEPEKMLAALKVFVQPMKAATRS [P53T] | 55.2 | -4.3
12 | MERYESLFAQLKERKEGAFVPFVTLGDPGIEQSLKIIDTLIEAGADALELGIPFSDPLAGGPTIQNATLRAFAAGVTPAQCFEMLALIRQKHPTIPIGLLMYANLVFNKGIDEFYAQCEKVGVDSVLVADVPVEESAPFRQAALRHNVAPIFICPPNADDDLLRQIASYGRGYTYLLSRAGVTGAENRAALPLNHLVAKLKEYNAAPPLQGFGISAPDQVKAAIDAGAAGAISGSAIVKIIEQHINEPEKMLAALKVFVQPMKAATRS [D60G] | 56.9 | -2.6
13 | MERYESLFAQLKERKEGAFVPFVTLGDPGIEQSLKIIDTLIEAGADALGLGIPFSDPLADGPTIQNATLRAFAAGVTPAQCFEMLALIRQKHPTIPIGLLMYANLVFNKGIDEFYAQCEKVGVDSVLVADVPVEESAPFRQAALRHNVAPIFICPPNADDDLLRQIASYGRGYTYLLSRAGVTGAENRAALPLNHLVAKLKEYNAAPPLQGFGISAPDQVKAAIDAGAAGAISGSAIVKIIEQHINEPEKMLAALKVFVQPMKAATRS [E49G] | 57.7 | -1.8
14 | MERYESLFAQLKERKEGAFVSFVTLGDPGIEQSLKIIDTLIEAGADALELGIPFSDPLADGPTIQNATLRAFAAGVTPAQCFEMLALIRQKHPTIPIGLLMYANLVFNKGIDEFYAQCEKVGVDSVLVADVPVEESAPFRQAALRHNVAPIFICPPNADDDLLRQIASYGRGYTYLLSRAGVTGAENRAALPLNHLVAKLKEYNAAPPLQGFGISAPDQVKAAIDAGAAGAISGSAIVKIIEQHINEPEKMLAALKVFVQPMKAATRS [P21S] | 55.2 | -4.3
15 | MERYESLFAQLKERKEGAFVPSVTLGDPGIEQSLKIIDTLIEAGADALELGIPFSDPLADGPTIQNATLRAFAAGVTPAQCFEMLALIRQKHPTIPIGLLMYANLVFNKGIDEFYAQCEKVGVDSVLVADVPVEESAPFRQAALRHNVAPIFICPPNADDDLLRQIASYGRGYTYLLSRAGVTGAENRAALPLNHLVAKLKEYNAAPPLQGFGISAPDQVKAAIDAGAAGAISGSAIVKIIEQHINEPEKMLAALKVFVQPMKAATRS [F22S] | 60.3 | 0.8
16 | MERYESLFAQLKERKEGAFVPFVTLGDPGIEQSLKIIDTLIEAGADALELGIPFSDPLADGPTIRNATLRAFAAGVTPAQCFEMLALIRQKHPTIPIGLLMYANLVFNKGIDEFYAQCEKVGVDSVLVADVPVEESAPFRQAALRHNVAPIFICPPNADDDLLRQIASYGRGYTYLLSRAGVTGAENRAALPLNHLVAKLKEYNAAPPLQGFGISAPDQVKAAIDAGAAGAISGSAIVKIIEQHINEPEKMLAALKVFVQPMKAATRS [Q65R] | 58.9 | -0.6
17 | MERYESLFAQLKERKEGAFVPFVTLGDPGIEQSLKIIDTLIEAGADALELDIPFSDPLADGPTIQNATLRAFAAGVTPAQCFEMLALIRQKHPTIPIGLLMYANLVFNKGIDEFYAQCEKVGVDSVLVADVPVEESAPFRQAALRHNVAPIFICPPNADDDLLRQIASYGRGYTYLLSRAGVTGAENRAALPLNHLVAKLKEYNAAPPLQGFGISAPDQVKAAIDAGAAGAISGSAIVKIIEQHINEPEKMLAALKVFVQPMKAATRS [G51D] | 55 | -4.5
18 | MERYESLFAQLKERKEGAFVPFVTLGDPGIEQLLKIIDTLIEAGADALELGIPFSDPLADGPTIQNATLRAFAAGVTPAQCFEMLALIRQKHPTIPIGLLMYANLVFNKGIDEFYAQCEKVGVDSVLVADVPVEESAPFRQAALRHNVAPIFICPPNADDDLLRQIASYGRGYTYLLSRAGVTGAENRAALPLNHLVAKLKEYNAAPPLQGFGISAPDQVKAAIDAGAAGAISGSAIVKIIEQHINEPEKMLAALKVFVQPMKAATRS [S33L] | 51.9 | -7.6
19 | MERYEPLFAQLKERKEGAFVPFVTLGDPGIEQSLKIIDTLIEAGADALELGIPFSDPLADGPTIQNATLRAFAAGVTPAQCFEMLALIRQKHPTIPIGLLMYANLVFNKGIDEFYAQCEKVGVDSVLVADVPVEESAPFRQAALRHNVAPIFICPPNADDDLLRQIASYGRGYTYLLSRAGVTGAENRAALPLNHLVAKLKEYNAAPPLQGFGISAPDQVKAAIDAGAAGAISGSAIVKIIEQHINEPEKMLAALKVFVQPMKAATRS [S6P] | 54.3 | -5.2
20 | MERYESLFAQLKERKEGAFVPFVTLGDPGIEQSLKIIDTLIEAGADALELGIPFSDPLADGPTIQNATLRAFAAGVTPAQCFEMLALIRQKHPTIPIGLLTYANLVFNKGIDEFYAQCEKVGVDSVLVADVPVEESAPFRQAALRHNVAPIFICPPNADDDLLRQIASYGRGYTYLLSRAGVTGAENRAALPLNHLVAKLKEYNAAPPLQGFGISAPDQVKAAIDAGAAGAISGSAIVKIIEQHINEPEKMLAALKVFVQPMKAATRS [M101T] | 67.1 | 7.6
21 | MERYESLFAQLKERKEGAFVPFVTLGDPGIEQSLKIIDTLIEAGADALELGIPFSDPLADGPTIQNATLRAFAAGVTPAQCFEMLALIRQKHPTIPIGLLVYANLVFNKGIDEFYAQCEKVGVDSVLVADVPVEESAPFRQAALRHNVAPIFICPPNADDDLLRQIASYGRGYTYLLSRAGVTGAENRAALPLNHLVAKLKEYNAAPPLQGFGISAPDQVKAAIDAGAAGAISGSAIVKIIEQHINEPEKMLAALKVFVQPMKAATRS [M101V] | 67.1 | 7.6
22 | MERYESLFAQLKERKEGAFVPFVTLGDPGIEQSLKIIDTLIEAGADALELGIPFSDPLADGPTIQNATLRAFAAGVTPAQCFEMLALIRQKHPTIPIGLLIYANLVFNKGIDEFYAQCEKVGVDSVLVADVPVEESAPFRQAALRHNVAPIFICPPNADDDLLRQIASYGRGYTYLLSRAGVTGAENRAALPLNHLVAKLKEYNAAPPLQGFGISAPDQVKAAIDAGAAGAISGSAIVKIIEQHINEPEKMLAALKVFVQPMKAATRS [M101I] | 63.2 | 3.7
